# Test results from US7265263B1, “Potato transcription factors, methods of use thereof, and a method for enhancing tuber development” (Iowa State University Research Foundation, Inc., priority 2002, dated 2007).
# T1: GAD:POTH1 fusion protein (Solanum tuberosum)
# T1 construct: 35S-methionine labelled, made by in vitro transcription/translation for the immunoprecipitation; also called POTH1:GAD
# T1 chain: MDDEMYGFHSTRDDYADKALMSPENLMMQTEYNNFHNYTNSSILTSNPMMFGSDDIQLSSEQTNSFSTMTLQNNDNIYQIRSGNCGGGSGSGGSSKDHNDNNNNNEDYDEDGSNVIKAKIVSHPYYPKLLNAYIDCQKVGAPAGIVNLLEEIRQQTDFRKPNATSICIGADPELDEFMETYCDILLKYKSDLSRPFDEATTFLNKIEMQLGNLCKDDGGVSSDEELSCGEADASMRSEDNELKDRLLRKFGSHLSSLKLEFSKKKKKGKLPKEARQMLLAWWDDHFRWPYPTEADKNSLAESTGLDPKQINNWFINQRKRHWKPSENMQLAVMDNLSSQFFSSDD
# T2: GAD protein alone (UniProt P04386 768-881, limits assumed)
# T2 construct: Control of the immunoprecipitation
# T2 sequence (looked up): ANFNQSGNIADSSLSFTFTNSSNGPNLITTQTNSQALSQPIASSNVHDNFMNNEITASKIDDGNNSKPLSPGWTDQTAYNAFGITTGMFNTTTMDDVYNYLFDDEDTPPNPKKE
# T3: StBEL-05 protein from pGEM11Z (in vitro transcription/translation) (Solanum tuberosum)
# T3 construct: 35S-methionine labelled prey; also called p11Z-5
# T3 chain: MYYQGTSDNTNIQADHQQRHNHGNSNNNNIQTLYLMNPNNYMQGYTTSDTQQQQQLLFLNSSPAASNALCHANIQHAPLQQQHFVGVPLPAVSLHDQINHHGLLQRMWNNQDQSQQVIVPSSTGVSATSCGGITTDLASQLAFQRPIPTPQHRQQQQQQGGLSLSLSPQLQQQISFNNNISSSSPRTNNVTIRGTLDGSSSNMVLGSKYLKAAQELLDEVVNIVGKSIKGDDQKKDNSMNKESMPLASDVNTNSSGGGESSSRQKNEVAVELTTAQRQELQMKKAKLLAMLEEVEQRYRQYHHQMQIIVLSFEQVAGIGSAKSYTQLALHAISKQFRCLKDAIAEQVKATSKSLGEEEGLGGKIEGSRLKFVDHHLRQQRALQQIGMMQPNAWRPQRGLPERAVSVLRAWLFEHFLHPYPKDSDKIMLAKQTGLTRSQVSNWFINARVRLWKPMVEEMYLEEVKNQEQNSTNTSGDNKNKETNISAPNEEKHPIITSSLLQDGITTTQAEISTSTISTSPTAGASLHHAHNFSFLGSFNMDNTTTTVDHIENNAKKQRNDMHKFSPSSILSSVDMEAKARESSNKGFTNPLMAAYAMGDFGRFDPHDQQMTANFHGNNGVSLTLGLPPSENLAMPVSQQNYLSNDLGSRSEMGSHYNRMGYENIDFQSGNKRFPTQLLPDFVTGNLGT
# B1: StBEL-13 protein from pGEM11Z (in vitro transcription/translation) (other)
# chain: MVMGGGASSQQLGYAKNHTPNVAESMQLFLMNPQPRSPSPSPPNSTSSTLHMLLPNPSSTSTLQGFPNPAEGSFGQFITWGNGGASAATATHHLNAQNEIGGVNVVESQGLSLSLSSSLQHKAEELQMSGEAGGMMFFNQGGSSTSGQYRYKNLNMGGSGVSPNIHQVHVGYGSSLGVVNVLRNSKYAKAAQELLEEFCSVGRGKLKKTNNKAAANNPNTNPSGANNEASSKDVPTLSAADRIEHQRRKVKLLSMVDEVDRRYNHYCEQMQMVVNSFDLVMGFGTAVPYTALAQKAMSRHFRCLKDAIGAQLKQSCELLGEKDAGNSGLTKGETPRLKMLEQSLRQQRAFHQMGMMEQEAWRPQRGLPERSVNILRAWLFEHFLHPYPSDADKHLLARQTGLSRNQVSNWFINARVRLWKPMVEDMYQQEAKDEDGDGDEKSQSQNSGNNIIAQTPTPNSLTNTSSTNMTTTTAPTTTTALAAAETGTAATPITVTSSKRSQINATDSDPSLVAINSFSENQATFPTNIHDPDDCRRGNLSGDDGTTTHDHMGSTMIRFGTTAGDVSLTLGLRHAGNLPENTHFFG
# notes: 35S-methionine labelled prey; also called p11Z-13
# B2: StBEL-30 protein from pGEM11Z (in vitro transcription/translation) (other)
# chain: MATYFPSPNNQRDADQTFQYFRQSLPESYSEASNAPENMMVFMNYSSSGAYSDMLTGTSQQQHNCIDIPSIGATPFNTSQQEILSNLGGSQMGIQDFSSWRDSRNEMLADNVFQVAQNVQGQGLSLSLGSNIPSGIGISHVQSQNPNQGGGFNMSFGDGDNSQPKEQRNADYFPPDNPGRDLDAMKGYNSPYGTSSIARTIPSSKYLKAAQYLLDEVVSVRKAIKEQNSKKELTKDSRESDVDSKNISSDTPANGGSNPHESKNNQSELSPTEKQEVQNKLAKLLSMLDEIDRRYRQYYHQMQIVVSSFDVVAGEGAAKPYTALALQTISRHFRCLRDAICDQIRASRRSLGEQDASENSKAIGISRLRFVDHHIRQQRALQQLGMMQQHAWRPQRGLPESSVSVLRAWLFEHFLHPYPKDSDKIMLARQTGLTRSQVSNWFINARVRLWKPMVEEMYKEEAGDAKIDSNSSSDVAPRLATKDSKVEERGELHQNAASEFEQYNSGQILESKSNHEADVEMEGASNAETQSQSGMENQTGEPLPAMDNCTLFQDAFVQSNDRFSEFGSFGSGNVLPNGVSLTLGLQQGEGSNLPMSIETHVSYVPLRADDMYSTAPTTMVPETAEFNCLDSGNRQQPFWLLPSAT
# notes: 35S-methionine labelled prey; also called p11Z-30
# B3: pAD5-1 (StBEL-05 deletion construct in pGAD) (other, not shown: small tags and cut ends)
# chain: KNEVAVELTTAQRQELQMKKAKLLAMLEEVEQRYRQYHHQMQIIVLSFEQVAGIGSAKSYTQLALHAISKQFRCLKDAIAEQVKATSKSLGEEEGLGGKIEGSRLKFVDHHLRQQRALQQIGMMQPNAWRPQRGLPERAVSVLRAWLFEHFLHPYPKDSDKIMLAKQTGLTRSQVSNWFINARVRLWKPMVEEMYLEEVKNQEQNSTNTSGDNKNKETNISAPNEEKHPIITSSLLQDGITTTQAEISTSTISTSPTAGASLHHAHNFSFLGSFNMDNTTTTVDHIENNAKKQRNDMHKFSPSSILSSVDMEAKARESSNKGFTNPLMAAYAMGDFGRFDPHDQQMTANFHGNNGVSLTLGLPPSENLAMPVSQQNYLSNDLGSRSEMGSHYNRMGYENIDFQSGNKRFPTQLLPDFVTGNLGT
# notes: Lacks the SKY box; residues converted from pAD-05 numbering
# B4: pBHD9 construct as used in the in vitro binding protocol (other)
# chain: MDDEMYGFHSTRDDYADKALMSPENLMMQTEYNNFHNYTNSSILTSNPMMFGSDDIQLSSEQTNSFSTMTLQNNDNIYQIRSGNCGGGSGSGGSSKDHNDNNNNNEDYDEDGSN
# Experiments:
# GAD:POTH1 fusion protein [1] = target: T1, GAD:POTH1 fusion protein; assay: in vitro transcription/translation, immunoprecipitation assay
# Experimental: (§1) In vitro binding experiments were performed as described by Ni et al., "PIF3, a Phytochrome-Interacting Factor Necessary for Normal Photoinduced Signal Transduction, is a Novel Basic *Helix*-Loop-Helix Protein," *Cell* 95:657-667 (1998), which is hereby incorporated by reference in its entirety. The full-length sequence for POTH1 was cloned into a pET17b/GAD fusion cassette and transcribed under the control of the T7 promoter. The BEL cDNAs were cloned into pGEM11Z vectors and were transcribed under the control of the T7 promoter. ^35S-methionine labeled bait and prey proteins were synthesized using the TnT in vitro transcription-translation kit (Promega) according to the manufacturer's protocols. Each 50 μl TnT reaction contained 2.0 μg of template plasmid DNA and 20 μmol (20 μCi) of labeled ^35S-methionine. The POTH1:GAD/BEL complex was immunoprecipitated with anti-GAD antibodies (Santa Cruz Biotechnology, Calif.). The proteins from the pellet (one-half the fraction) and for the prey (one-fourth of the reaction volume) were resolved on a 10% SDS-PAGE gel and visualized by autoradiography.
# POTH1 [2] = assay: In vitro binding assay (immunoprecipitation) with POTH1; parameters: species or system Solanum tuberosum; conditions: in vitro transcription/translation, anti-GAD
# Experimental: In vitro binding experiments were performed as described by Ni et al., “PIF3, a Phytochrome-Interacting Factor Necessary for Normal Photoinduced Signal Transduction, is a Novel Basic Helix-Loop-Helix Protein,” Cell 95:657-667 (1998), which is hereby incorporated by reference in its entirety. The full-length sequence for POTH1 was cloned into a pET17b/GAD fusion cassette and transcribed under the control of the T7 promoter. […] Each 50 μl TnT reaction contained 2.0 μg of template plasmid DNA and 20 μmol (20 μCi) of labeled ^35S-methionine. The POTH1:GAD/BEL complex was immunoprecipitated with anti-GAD antibodies (Santa Cruz Biotechnology, Calif.). The proteins from the pellet (one-half the fraction) and for the prey (one-fourth of the reaction volume) were resolved on a 10% SDS-PAGE gel and visualized by autoradiography.
# POTH1 [3] = assay: Yeast two-hybrid interaction with POTH1; assay type: binding, Solanum tuberosum; conditions: nutritional selection and lacZ activation, yeast AH109
# Description: (§2) The Matchmaker two-hybrid system (Clontech, Calif.) was used for the yeast two-hybrid screen. Yeast transformation and plasmid rescue into DH5-α E. coli cells were according to the manufacturer's instructions. Full-length POTH1 was cloned into the pBridge (Clontech, Calif.) vector and used as bait to screen the potato (S. tuberosum ‘Desireé’) stolon cDNA library in pAD-GAL4-2.1 (Stratagene, Calif.). Positive interactions were confirmed by cotransforming yeast strain AH109 with each purified pAD plasmid and pBridge: POTH1 and plating on -leucine/-tryptophan (transformation control) and -leucine/-tryptophan/-histidine/-adenine (selection) nutrient medium. Induction of the AH109 reporter gene, lacZ, was measured with a yeast β-galactosidase assay kit (Pierce Chemicals). β-galactosidase activity (FIG. 9B) was determined from a known density of yeast cells and calculated as 1000×OD420/time of color reaction (minutes)×volume of yeast culture (ml)×OD600.
# The StBEL-05 deletion constructs were amplified by PCR, then cloned into the vector, pGAD, in-frame with the GAL4 activation domain. POTH1 deletion constructs were amplified by PCR, and cloned into pBridge (Clontech) in-frame with the GAL4 binding domain. Sequencing of selected cDNAs and constructs was performed at the Iowa State University DNA Facility. For deletion analysis, modified constructs of POTH1 were cloned into the pBridge vector for fusion with the DNA-binding domain of GAL4 (FIG. 10A). For StBEL-05, constructs were cloned into the pGAD vector for fusion with the activating domain of GAL4 (FIG. 10B). Deletion constructs were made from both the amino and carboxy termini. These mutants were then tested for interaction in the yeast two-hybrid system by cotransforming into yeast strain AH109 with the corresponding full-length partner (StBEL-05 in pGAL4 or POTH1 in pBridge). All constructs were sequenced to verify that they were in-frame. Positive interactions were verified for lacZ induction by using a β-galactosidase assay (Pierce Chemical Company). For POTH1, seven deletion constructs were tested (FIG. 10A). For the BEL TFs, a fusion construct of StBEL-05 (653 aa of StBEL-05 sequence) and nine deletion constructs were tested (FIG. 10B).
# GAD protein alone = target: T2, GAD protein alone; assay: in vitro translated 35S-labelled proteins, immunoprecipitation with anti-GAD antibodies
# Experimental: as §1
# GAD:POTH1 fusion protein [4] = target: T1, GAD:POTH1 fusion protein; assay: in vitro translated 35S-labelled proteins, co-immunoprecipitation with anti-GAD antibodies, SDS-PAGE autoradiography
# Experimental: as §1
# [5] = target: T4, POTH1 in pBridge (full-length POTH1 fused with the GAL4 DNA-binding domain) (Solanum tuberosum); assay: quantitative yeast two-hybrid beta-galactosidase assay
# T4 construct: Bait of the yeast two-hybrid screen and partner of the StBEL-05 deletion constructs; also called pBHD; pBridge:POTH1
# Description: as §2, with “*E. coli*” for “E. coli”, “(*S. tuberosum* 'Desireé')” for “(S. tuberosum ‘Desireé’)”, “1000 ×OD420/time” for “1000×OD420/time”, “(ml)×$OD600$.” for “(ml)×OD600.”
# The StBEL-05 deletion constructs were amplified by PCR, then cloned into the vector, pGAD, in-frame with the GAL4 activation domain. POTH1 deletion constructs were amplified by PCR, and cloned into pBridge (Clontech) in-frame with the GAL4 binding domain. Sequencing of selected cDNAs and constructs was performed at the Iowa State University DNA Facility. […]
# [6] = target: T3, StBEL-05 protein from pGEM11Z (in vitro …); assay: in vitro binding protocol (pull-down)
# Experimental: as §1
molecule,measurement,setting,value
B1,binding result,GAD:POTH1 fusion protein [1],binds
same,pull-down by POTH1 in immunoprecipitation,POTH1 [2],pulled down
same,interaction with POTH1,POTH1 [3],showed selective interaction
same,binding result,GAD protein alone,no binding
B2,pull-down by POTH1 in immunoprecipitation,POTH1 [2],pulled down
same,interaction with POTH1,POTH1 [3],showed selective interaction
same,binding result,GAD protein alone,no binding
same,binding result,GAD:POTH1 fusion protein [4],binds
B3,"decrease in the induction of the lacZ marker (beta-galactosidase activity) relative to the full-length construct, StBEL-05",[5],55%
B4,binding result,[6],no binding
